Target: His‐GABARAP‐L2 S87/88D (human, UniProt P60520 1-117, S87/88D | S87/88D)
Assay: BLI

B1: GST‐ATG4A (enzyme)
chain: MESVLSKYEDQITIFTDYLEEYPDTDELVWILGKQHLLKTEKSKLLSDISARLWFTYRRKFSPIGGTGPSSDAGWGCMLRCGQMMLAQALICRHLGRDWSWEKQKEQPKEYQRILQCFLDRKDCCYSIHQMAQMGVGEGKSIGEWFGPNTVAQVLKKLALFDEWNSLAVYVSMDNTVVIEDIKKMCRVLPLSADTAGDRPPDSLTASNQSKGTSAYCSAWKPLLLIVPLRLGINQINPVYVDAFKECFKMPQSLGALGGKPNNAYYFIGFLGDELIFLDPHTTQTFVDTEENGTVNDQTFHCLQSPQRMNILNLDPSVALGFFCKEEKDFDNWCSLVQKEILKENLRMFELVQKHPSHWPPFVPPAKPEVTTTGAEFIDSTEQLEEFDLEEDFEILSV
- Kd: 24 µM

— publication PMC6945063 (2019)
